Kd data for 8 molecules are collected here from patent US20220064329A1 (Novo Nordisk, published 2022).

B1: VH SEQ ID NO 522 / VL SEQ ID NO 334 (antibody, IgG4, V domains shown)
VH: QVQLQESGPGLVEPSQTLSLTCTVSGYSISSDSAWSWIRQPPGKGLEWIGYIQYSGSTNYNPSLKSRVTISRDTSKNQFSLKLSSVTAADTAVYYCARSVNYYGNSFAVGPWGQGTLVTVSS
VL: EIVLTQSPATLSLSPGERATLSCRASQGISDYLHWYQQKPGQAPRLLIKYASQPATGIPARFSGSGSGTDFTLTISSLEPEDFAVYYCQNGHSFPLTFGQGTKLEIK
notes: humanized 11F2; IgG4 S228P/kappa
B2: VH SEQ ID NO 522 / VL SEQ ID NO 342 (antibody, IgG4, V domains shown)
VH: QVQLQESGPGLVEPSQTLSLTCTVSGYSISSDSAWSWIRQPPGKGLEWIGYIQYSGSTNYNPSLKSRVTISRDTSKNQFSLKLSSVTAADTAVYYCARSVNYYGNSFAVGPWGQGTLVTVSS
VL: EIVLTQSPATLSLSPGERATLSCRASQGISDYLHWYQQKPGQAPRLLIKYTSQPATGIPARFSGSGSGRDFTLTISSLEPEDFAVYYCQNGHSFPLTFGAGTKLELK
notes: as for B1
B3: VH SEQ ID NO 522 / VL SEQ ID NO 382 (antibody, IgG4, V domains shown)
VH: QVQLQESGPGLVEPSQTLSLTCTVSGYSISSDSAWSWIRQPPGKGLEWIGYIQYSGSTNYNPSLKSRVTISRDTSKNQFSLKLSSVTAADTAVYYCARSVNYYGNSFAVGPWGQGTLVTVSS
VL: EIVLTQSPATLSLSPGERATLSCRASQGLSDYLHWYQQKPGEAPRLLIKYASQPATGIPARFSGSGSGTDFTLTISSLEPEDFAVYYCQNGHSFPLTFGQGTKLEIK
notes: as for B1
B4: VH SEQ ID NO 522 / VL SEQ ID NO 390 (antibody, IgG4, V domains shown)
VH: QVQLQESGPGLVEPSQTLSLTCTVSGYSISSDSAWSWIRQPPGKGLEWIGYIQYSGSTNYNPSLKSRVTISRDTSKNQFSLKLSSVTAADTAVYYCARSVNYYGNSFAVGPWGQGTLVTVSS
VL: EIVLTQSPATLSLSPGERATLSCRASQGVSDYLAWYQQKPGEAPRLLIKYASQPATGIPARFSGSGSGTDFTLTISSLEPEDFAVYYCQNGHSFPLTFGQGTKLEIK
notes: as for B1
B5: VH SEQ ID NO 522 / VL SEQ ID NO 374 (antibody, IgG4, V domains shown)
VH: QVQLQESGPGLVEPSQTLSLTCTVSGYSISSDSAWSWIRQPPGKGLEWIGYIQYSGSTNYNPSLKSRVTISRDTSKNQFSLKLSSVTAADTAVYYCARSVNYYGNSFAVGPWGQGTLVTVSS
VL: EIVLTQSPATLSLSPGERATLSCRASQGLSDYLAWYQQKPGQAPRLLIKYTSQPATGIPARFSGSGSGTDFTLTISSLEPEDFAVYYCQNGHSFPLTFGQGTKLEIK
notes: as for B1
B6: VH SEQ ID NO 522 / VL SEQ ID NO 366 (antibody, IgG4, V domains shown)
VH: QVQLQESGPGLVEPSQTLSLTCTVSGYSISSDSAWSWIRQPPGKGLEWIGYIQYSGSTNYNPSLKSRVTISRDTSKNQFSLKLSSVTAADTAVYYCARSVNYYGNSFAVGPWGQGTLVTVSS
VL: EIVLTQSPATLSLSPGERATLSCRASQGLSDYLAWYQQKPGEAPRLLIKYASQPATGIPARFSGSGSGTDFTLTISSLEPEDFAVYYCQNGHSFPLTFGQGTKLEIK
notes: as for B1
B7: VH SEQ ID NO 522 / VL SEQ ID NO 358 (antibody, IgG4, V domains shown)
VH: QVQLQESGPGLVEPSQTLSLTCTVSGYSISSDSAWSWIRQPPGKGLEWIGYIQYSGSTNYNPSLKSRVTISRDTSKNQFSLKLSSVTAADTAVYYCARSVNYYGNSFAVGPWGQGTLVTVSS
VL: EIVLTQSPATLSLSPGERATLSCRASQGISDYLHWYQQKPGQAPRLLIKYTSQPATGIPARFSGSGSGTDFTLTISSLEPEDFAVYYCQNGHSFPLTFGQGTKLEIK
notes: as for B1
B8: VH SEQ ID NO 522 / VL SEQ ID NO 350 (antibody, IgG4, V domains shown)
VH: QVQLQESGPGLVEPSQTLSLTCTVSGYSISSDSAWSWIRQPPGKGLEWIGYIQYSGSTNYNPSLKSRVTISRDTSKNQFSLKLSSVTAADTAVYYCARSVNYYGNSFAVGPWGQGTLVTVSS
VL: EIVLTQSPATLSLSPGERATLSCRASQGISDYLHWYQQKPGQAPRLLIKYTSQPATGIPARFSGSGSGTDFTLTISSLEPEDFAVYYCQNGHSFPLTFGAGTKLELK
notes: as for B1

The target in the assay is T1, recombinant human activated Factor VII (FVIIa) (human, UniProt P08709 61-212; P08709 213-466, ten glutamate residues of the Gla domain may be gamma-carboxylated).
T1 construct: chains tethered by a disulfide bond; also called Factor VIIa; rFVIIa
T1 sequence 1: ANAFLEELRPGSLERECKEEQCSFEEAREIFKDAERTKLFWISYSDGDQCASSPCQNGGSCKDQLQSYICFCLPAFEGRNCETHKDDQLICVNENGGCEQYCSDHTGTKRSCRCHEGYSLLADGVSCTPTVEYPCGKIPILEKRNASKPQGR
T1 sequence 2: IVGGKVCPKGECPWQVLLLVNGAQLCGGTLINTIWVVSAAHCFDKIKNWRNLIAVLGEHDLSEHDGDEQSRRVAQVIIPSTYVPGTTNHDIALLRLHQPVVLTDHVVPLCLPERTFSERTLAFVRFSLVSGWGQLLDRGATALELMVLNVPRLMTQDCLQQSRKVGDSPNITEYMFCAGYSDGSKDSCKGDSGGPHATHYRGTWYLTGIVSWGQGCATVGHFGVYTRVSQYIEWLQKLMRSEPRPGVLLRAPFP
Put plainly: BLI (Fortebio). On the procedure:
All steps were performed in running buffer (20 mM HEPES buffer (pH 7.4), 150 mM NaCl, 5 mM CaCl2, 0.03% Tween 20, 1 mg/ml IgG-free BSA) at […] Antibodies were captured on anti-human tips (AHC, Fortebio) for 3 min at a concentration of 10 ug/ml. This was followed by a 3 min incubation to establish a baseline. Following this, association was monitored for 3 min using four different concentrations of VIIa (25 nm, 50 nM, 100 nM, and 200 nM), followed by a 3 mi dissociation. Sensorgrams were analysed using Fortebio data analysis software.
On the technique in general: BLI is a label-free optical method that tracks binding on a fibre tip over time.
By Kd is commonly meant the free concentration of one partner at which half of the binding sites on the other are occupied at equilibrium, for simple one-to-one binding. As for B1, the Kd came to 1.2 nM.

For the molecule B2, the Kd is 1.4 nM. Under B3 stands 1.3 nM; under B4, 15 nM; under B5, 14 nM. Under B6 stands 14 nM. Under B7 stands 1.3 nM; under B8, 1.3 nM.
